# In article PMC6636998, “Functional cross-talk between allosteric effects of activating and inhibiting ligands underlies PKM2 regulation” (eLife, 2019):
# B1: PKM2(I124G) (enzyme)
# chain: not shown
# notes: pyruvate kinase M2 (PKM2), Homo sapiens, Uniprot ID P14618-1; pET28a-His-PKM2(I124G), made from pET28a-His-PKM2(WT); also called AlloHubM I124G; source: E. coli BL21(DE3)pLysS, purified (HisTrap IMAC, thrombin cleavage, Superdex 200 SEC); not shown: His6, N-terminal, cleaved
# B2: PKM2(F244V) (enzyme)
# chain: not shown
# notes: pyruvate kinase M2 (PKM2), Homo sapiens, Uniprot ID P14618-1; pET28a-His-PKM2(F244V), made from pET28a-His-PKM2(WT); also called AlloHubM F244V; source: E. coli BL21(DE3)pLysS, purified (HisTrap IMAC, thrombin cleavage, Superdex 200 SEC); not shown: His6, N-terminal, cleaved
# B3: PKM2(A327S) (enzyme)
# chain: not shown
# notes: pyruvate kinase M2 (PKM2), Homo sapiens, Uniprot ID P14618-1; pET28a-His-PKM2(A327S), made from pET28a-His-PKM2(WT); also called AlloHubM A327S; source: E. coli BL21(DE3)pLysS, purified (HisTrap IMAC, thrombin cleavage, Superdex 200 SEC); not shown: His6, N-terminal, cleaved
# B4: PKM2(K305Q) (enzyme)
# chain: not shown
# notes: pyruvate kinase M2 (PKM2), Homo sapiens, Uniprot ID P14618-1; pET28a-His-PKM2(K305Q), made from pET28a-His-PKM2(WT); also called AlloHubM K305Q; source: E. coli BL21(DE3)pLysS, purified (HisTrap IMAC, thrombin cleavage, Superdex 200 SEC); not shown: His6, N-terminal, cleaved
# B5: PKM2(C358A) (enzyme)
# chain: not shown
# notes: pyruvate kinase M2 (PKM2), Homo sapiens, Uniprot ID P14618-1; pET28a-His-PKM2(C358A), made from pET28a-His-PKM2(WT); also called AlloHubM C358A; source: E. coli BL21(DE3)pLysS, purified (HisTrap IMAC, thrombin cleavage, Superdex 200 SEC); not shown: His6, N-terminal, cleaved
# Target: the molecule itself
# Test: native MS; nano-ESI, PKM2 in 200 mM ammonium acetate pH 6.8, with added saturating FBP (10 µM FBP to 10 µM PKM2; 10:1 FBP:PKM2 for the AlloHub mutants); also with 300 µM Phe added before or after FBP
Protein,binding result,stoichiometry N
B1,binds,
B2,binds,
B3,,4
B4,,4
B5,,4
